Assay results reported in article PMC5076530.

How the values were obtained:
[1] = molecular target: human insulin-like growth factor type I receptor (human); assay: radioligand binding; competition with human 125I-IGF-I on human IGF-1R in membranes of mouse embryonic fibroblasts (IGF-1R knock-out, transfected with human IGF-1R); non-linear regression, one-site fit; Kd of 125I-IGF-I set to 0.2 nM
[2] = molecular target: human insulin receptor isoform A (human); assay: radioligand binding; competition with human 125I-insulin on IR-A in membranes of human IM-9 lymphocytes; non-linear regression, one-site fit, depletion of free ligand taken into account; Kd of 125I-insulin set to 0.3 nM
[3] = molecular target: human insulin receptor isoform B (human); assay: radioligand binding; human IR-B in membranes of mouse embryonic fibroblasts (IGF-I receptor knock-out, solely expressing human IR-B); non-linear regression, one-site fit, depletion of free ligand taken into account

Substance	Kd [1] [nM]	Kd [2] [nM]	Kd [3] [nM]
[S39_PQ]IGF-II (ligand)	5	38	–
[N29,S39_PQ]IGF-II (ligand)	1.33	16.8	–
[R34_GS]IGF-II (ligand)	4.13	15.4	–

Second part, the substance after the results:

Kd [1] [nM]	Kd [2] [nM]	Kd [3] [nM]	Substance
4.57	10.3	108	[N29]IGF-II (ligand)
2.29	3.03	43.7	IGF-II (recombinant, with an additional glycine at the N terminus) (ligand)
5.68	23.4	–	[R34_GS,S39_PQ]IGF-II (ligand)
3.19	19.9	–	[N29,R34_GS,S39_PQ]IGF-II (ligand)
